Tests used:
HLA-A*02:01 = HLA-A*02:01 (Homo sapiens, UniProt P04439, D140Y/D185E/D98H/E176V/E277Q/G131W/G231S/I119V/I121R/I166T/I218V/L300P/L318F/N151K/N90K/P208A/P217A/Q86G/Q94H/R138H/R169H/T345S); assay: MHC binding assay (UV-ligand exchange, beta2m ELISA); conditions: binding to HLA-A*02:01 ranged by peptide exchange yield (UV-ligand exchange, β2m ELISA)
Outline: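 Stabilised complexes were quantified via their β2m light chain: 100-fold-diluted monomers bound to streptavidin plates, then HRP anti-β2m at 2 ug/ml for 1 h at 37° C., TMB read at 450 nm. The value is the yield of UV-induced exchange of a photocleavable peptide for the candidate.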

CD8+ T cells = assay: In vitro immunogenicity for MHC class I presented peptides (priming of CD8+ T cells with aAPCs, pMHC multimer staining); type: cell-based, human; conditions: for Wells positive [%]: HLA-A*02 restricted peptides, positive wells among evaluable
Excerpt: In order to obtain information regarding the immunogenicity of the TUMAPs of the present invention, the inventors performed investigations using an in vitro T-cell priming assay based on repeated stimulations of CD8+ T cells with artificial antigen presenting cells (aAPCs) loaded with peptide/MHC complexes and anti-CD28 antibody.
In order to perform in vitro stimulations by artificial antigen presenting cells loaded with peptide-MHC complex (pMHC) and anti-CD28 antibody, the inventors first isolated CD8+ T cells from fresh HLA-A*02 leukapheresis products via positive selection using CD8 microbeads (Miltenyi Biotec, Bergisch-Gladbach, Germany) of healthy donors obtained from the University clinics Mannheim, Germany, after informed consent.
PBMCs and isolated CD8+ lymphocytes were incubated in T-cell medium (TCM) until use consisting of RPMI-Glutamax (Invitrogen, Karlsruhe, Germany) supplemented with 10% heat inactivated human AB serum (PAN-Biotech, Aidenbach, Germany), 100 U/ml Penicillin/100 μg/ml Streptomycin (Cambrex, Cologne, Germany), 1 mM sodium pyruvate (CC Pro, Oberdorla, Germany), 20 μg/ml Gentamycin (Cambrex). 2.5 ng/ml IL-7 (PromoCell, Heidelberg, Germany) and 10 U/ml IL-2 (Novartis Pharma, Nürnberg, Germany) were also added to the TCM at this step.
Generation of pMHC/anti-CD28 coated beads, T-cell stimulations and readout was performed in a highly defined in vitro system using four different pMHC molecules per stimulation condition and 8 different pMHC molecules per readout condition.
The purified co-stimulatory mouse IgG2a anti human CD28 Ab 9.3 (Jung et al., 1987) was chemically biotinylated using Sulfo-N-hydroxysuccinimidobiotin as recommended by the manufacturer (Perbio, Bonn, Germany). Beads used were 5.6 μm diameter streptavidin coated polystyrene particles (Bangs Laboratories, Illinois, USA).
pMHC used for positive and negative control stimulations were A*0201/MLA-001 (peptide […] (SEQ ID NO. 664) from modified Melan-A/MART-1) and A*0201/DDX5-001 ([…] from DDX5, SEQ ID NO. 665), respectively.
800,000 beads/200 μl were coated in 96-well plates in the presence of 4×12.5 ng different biotin-pMHC, washed and 600 ng biotin anti-CD28 were added subsequently in a volume of 200 μl. Stimulations were initiated in 96-well plates by co-incubating […] CD8+ T cells with 2×10^5 washed coated beads in 200 μl TCM supplemented with 5 ng/ml IL-12 (PromoCell) for 3 days at 37° C. Half of the medium was then exchanged by fresh TCM supplemented with 80 U/ml IL-2 and incubating was continued for 4 days at 37° C. This stimulation cycle was performed for a total of three times. For the pMHC multimer readout using 8 different pMHC molecules per condition, a two-dimensional combinatorial coding approach was used as previously described (Andersen et al., 2012) with minor modifications encompassing coupling to 5 different fluorochromes. Finally, multimeric analyses were performed by staining the cells with Live/dead near IR dye (Invitrogen, Karlsruhe, Germany), CD8-FITC antibody clone SK1 (BD, Heidelberg, Germany) and fluorescent pMHC multimers. For analysis, a BD LSRII SORP cytometer equipped with appropriate lasers and filters was used. Peptide specific cells were calculated as percentage of total CD8+ cells. Evaluation of multimeric analysis was done using the FlowJo software (Tree Star, Oreg., USA). In vitro priming of specific multimer+ CD8+ lymphocytes was detected by comparing to negative control stimulations.
Exemplary flow cytometry results after TUMAP-specific multimer staining for two peptides of the invention are shown in FIG. 3 together with corresponding negative controls.

| Substance | Peptide exchange (HLA-A*02:01) | Wells positive [%] (CD8+ T cells) | in vitro immunogenicity: donors (CD8+ T cells; percentage of positive donors) |
| --- | --- | --- | --- |
| 652 (TLWYRAPEV; listed as Homo sapiens) [compound 652] |  |  | ++++ (>=70% = ++++) |
| 319 (SLEPQIQPV; listed as Homo sapiens) [compound 319] | “++” (≥20% = ++) | “+” (<20% = +) |  |
| 56 (KLYEGIPVLL; listed as Homo sapiens) [compound 56] | “++++” (≥75% = ++++) | “+” (<20% = +) |  |
| 141 (YLDFSNNRL; listed as Homo sapiens) [compound 141] | “++” (≥20% = ++) | “+” (<20% = +) |  |
| 48 (ALAELYEDEV; listed as Homo sapiens) [compound 48] | “+++” (≥50 = +++) | “+” (<20% = +) |  |
| 113 (GLLPTPLFGV; listed as Homo sapiens) [compound 113] | “+++” (≥50 = +++) | “+” (<20% = +) |  |
| 499 (KIFDIDEAEEGV; listed as Homo sapiens) [compound 499] | “++” (≥20% = ++) | “+” (<20% = +) |  |
| 3 (SLASKLTTL; listed as Homo sapiens) [compound 3] | “++++” (≥75% = ++++) | “+” (<20% = +) |  |
| 38 (FLLEDDIHVS; listed as Homo sapiens) [compound 38] | “+++” (≥50 = +++) | “+” (<20% = +) |  |
| 511 (FLDPYCSASV; listed as Homo sapiens) [compound 511] | “++” (≥20% = ++) | “+” (<20% = +) |  |
| 460 (AMLEKNYKL; listed as Homo sapiens) [compound 460] | “++++” (≥75% = ++++) | “+” (<20% = +) |  |
| 150 (RLWEEGEELEL; listed as Homo sapiens) [compound 150] | “+++” (≥50 = +++) | “+” (<20% = +) |  |
| 247 (VLLPNDLLEKV; listed as Homo sapiens) [compound 247] | “+++” (≥50 = +++) | “+” (<20% = +) |  |
| 603 (FLIEPEHVNTV; listed as Homo sapiens) [compound 603] | “++” (≥20% = ++) | “+” (<20% = +) |  |
| 145 (FLATSGTLAGI; listed as Homo sapiens) [compound 145] | “++” (≥20% = ++) |  |  |
| 402 (VLFSGALLGL; listed as Homo sapiens) [compound 402] | “++” (≥20% = ++) |  |  |

Second part, led by results:

| Peptide exchange (HLA-A*02:01) | Substance | Wells positive [%] (CD8+ T cells) | in vitro immunogenicity: donors (CD8+ T cells; percentage of positive donors) |
| --- | --- | --- | --- |
| “++++” (≥75% = ++++) | 8 (FTLGNVVGMYL; listed as Homo sapiens) [compound 8] | “+” (<20% = +) |  |
| “+++” (≥50 = +++) | 489 (KMWEELPEVV; listed as Homo sapiens) [compound 489] | “+” (<20% = +) |  |
| “++” (≥20% = ++) | 36 (YVLEDLEVTV; listed as Homo sapiens) [compound 36] | “+” (<20% = +) |  |
| “+++” (≥50 = +++) | 166 (YLNHLEPPV; listed as Homo sapiens) [compound 166] | “++++” (>=70% = ++++) |  |
| “+++” (≥50 = +++) | 2 (SLLEADPFL; listed as Homo sapiens) [compound 2] | “+” (<20% = +) |  |
| “+++” (≥50 = +++) | 443 (GLWEIENNPTV; listed as Homo sapiens) [compound 443] | “+” (<20% = +) |  |
| “+++” (≥50 = +++) | 118 (KLIDNNINV; listed as Homo sapiens) [compound 118] | “+” (<20% = +) |  |
| “+++” (≥50 = +++) | 11 (KIFEMLEGV; listed as Homo sapiens) [compound 11] | “+” (<20% = +) |  |
| “+++” (≥50 = +++) | 384 (ILFANPNIFV; listed as Homo sapiens) [compound 384] | “+” (<20% = +) |  |
| “++++” (≥75% = ++++) | 60 (SLTIDGIYYV; listed as Homo sapiens) [compound 60] | “++++” (>=70% = ++++) |  |
| “++++” (≥75% = ++++) | 143 (LLLDITPEI; listed as Homo sapiens) [compound 143] | “+” (<20% = +) |  |
| “+++” (≥50 = +++) | 79 (SLFIGEKAVLL; listed as Homo sapiens) [compound 79] | “+” (<20% = +) |  |
| “+++” (≥50 = +++) | 199 (ALQDVPLSSV; listed as Homo sapiens) [compound 199] | “+” (<20% = +) |  |

From patent US10738094B2, “Peptides and combination of peptides for use in immunotherapy against ovarian cancer and other cancers” (immatics biotechnologies GmbH, priority 2015, dated 2020)
